The source of these data is publication PMC1635243.

This experiment concerns the target recombinant T2 domain of xNAP1 (Xenopus nucleosome assembly protein), residues 38-282, histidine tagged (Xenopus laevis). As to the kind of experiment: AUC.

For orientation: stoichiometry N means the number of molecules, sites or subunits per partner or assembly.

Turning to “recombinant T2 domain of xNAP1 (Xenopus nucleosome assembly protein), residues 38-282, histidine tagged (domain or fragment)”, the stoichiometry N lay in the range of 12 to 16 subunits.
